In paper PMC4303335:

What was measured:
[1] = target: H3–K27 substrate peptide of the sensor (no NLS); test: split reporter
[2] = target: H3–K9 substrate peptide of the sensor with C-terminal NLS (NhRluc8.6-Suv39H1–H3–K9-ChRLuc-NLS); test: split reporter

Row | reconstituted RLuc signal (RLU/μg protein) [1] | reconstituted RLuc signal [2] | reconstituted RLuc signal (RLU/μg protein) [2] | Substance
1 | 3.67e+07 |  |  | Pc2 chromodomain in the H3–K27 sensor (domain or fragment)
2 |  | 3.3e+06 | 5.26e+06 | Suv39H1 chromodomain in the H3–K9 sensor (NhRluc8.6-Suv39H1–H3–K9-ChRLuc) (domain or fragment)
3 |  | 1.75e+06 |  | Suv39H1 chromodomain mutant (W64A, W74A) in the H3–K9 sensor (domain or fragment)
